Laboratory results from US20180264072A1.

How the values were obtained:
[1] = biological target: talin H1-H4; assay: isothermal titration calorimetry
[2] = biological target: talin H1-H4; assay: size exclusion chromatography; stoichiometry listed for the ternary complex
[3] = biological target: talin H1-H4; assay: ITC; HVD1:A483 equimolar complex in the cell, talin H1-H4 as titrant
[4] = biological target: T1, vinculin in C2.7 mouse myoblast cells (mouse) (UniProt Q64727); assay: cell-based or functional assay
T1 sequence: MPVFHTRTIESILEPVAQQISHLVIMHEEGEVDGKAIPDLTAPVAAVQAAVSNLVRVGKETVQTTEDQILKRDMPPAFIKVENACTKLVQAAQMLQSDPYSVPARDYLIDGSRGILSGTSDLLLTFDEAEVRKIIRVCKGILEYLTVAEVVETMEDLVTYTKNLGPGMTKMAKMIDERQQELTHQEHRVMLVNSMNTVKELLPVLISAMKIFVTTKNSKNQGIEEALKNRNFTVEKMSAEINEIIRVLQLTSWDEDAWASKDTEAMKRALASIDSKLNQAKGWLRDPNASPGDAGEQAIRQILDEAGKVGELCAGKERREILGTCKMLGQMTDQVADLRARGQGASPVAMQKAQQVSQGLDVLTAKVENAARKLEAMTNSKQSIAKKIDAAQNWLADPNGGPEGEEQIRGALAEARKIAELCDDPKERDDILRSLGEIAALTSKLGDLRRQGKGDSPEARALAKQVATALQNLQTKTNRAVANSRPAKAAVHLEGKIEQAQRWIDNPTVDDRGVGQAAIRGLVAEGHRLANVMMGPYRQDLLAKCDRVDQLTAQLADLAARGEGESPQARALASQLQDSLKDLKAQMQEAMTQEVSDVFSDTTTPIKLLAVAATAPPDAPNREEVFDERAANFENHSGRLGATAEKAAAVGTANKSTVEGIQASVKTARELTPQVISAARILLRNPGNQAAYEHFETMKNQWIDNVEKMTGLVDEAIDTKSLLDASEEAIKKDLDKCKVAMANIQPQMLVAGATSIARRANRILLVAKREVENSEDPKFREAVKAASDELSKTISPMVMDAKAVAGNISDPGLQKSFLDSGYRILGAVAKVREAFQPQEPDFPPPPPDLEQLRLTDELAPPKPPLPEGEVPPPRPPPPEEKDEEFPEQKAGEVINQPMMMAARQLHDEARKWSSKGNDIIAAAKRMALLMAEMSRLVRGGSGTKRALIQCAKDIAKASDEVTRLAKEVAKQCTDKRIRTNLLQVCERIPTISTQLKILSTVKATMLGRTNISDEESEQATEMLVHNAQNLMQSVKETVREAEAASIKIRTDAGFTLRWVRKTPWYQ

[5] = biological target: talin H1-H4; assay: size exclusion chromatography; stoichiometry listed for the complex
[6] = biological target: talin H1-H4; assay: ITC; A483 in the cell, talin H1-H4 as titrant
[7] = biological target: talin H1-H4; assay: ITC; A524 in the cell, talin H1-H4 as titrant
[8] = biological target: talin H1-H4; assay: ITC; talin H1-H4 in the cell, IpaA VBS1 peptide as titrant
[9] = biological target: talin H1-H4; assay: ITC; talin H1-H4 in the cell, IpaA VBS3 peptide as titrant
[10] = biological target: talin in HeLa cells (UniProt Q9Y490); assay: cell-based or functional assay
talin in HeLa cells, sequence (Q9Y490 whole entry): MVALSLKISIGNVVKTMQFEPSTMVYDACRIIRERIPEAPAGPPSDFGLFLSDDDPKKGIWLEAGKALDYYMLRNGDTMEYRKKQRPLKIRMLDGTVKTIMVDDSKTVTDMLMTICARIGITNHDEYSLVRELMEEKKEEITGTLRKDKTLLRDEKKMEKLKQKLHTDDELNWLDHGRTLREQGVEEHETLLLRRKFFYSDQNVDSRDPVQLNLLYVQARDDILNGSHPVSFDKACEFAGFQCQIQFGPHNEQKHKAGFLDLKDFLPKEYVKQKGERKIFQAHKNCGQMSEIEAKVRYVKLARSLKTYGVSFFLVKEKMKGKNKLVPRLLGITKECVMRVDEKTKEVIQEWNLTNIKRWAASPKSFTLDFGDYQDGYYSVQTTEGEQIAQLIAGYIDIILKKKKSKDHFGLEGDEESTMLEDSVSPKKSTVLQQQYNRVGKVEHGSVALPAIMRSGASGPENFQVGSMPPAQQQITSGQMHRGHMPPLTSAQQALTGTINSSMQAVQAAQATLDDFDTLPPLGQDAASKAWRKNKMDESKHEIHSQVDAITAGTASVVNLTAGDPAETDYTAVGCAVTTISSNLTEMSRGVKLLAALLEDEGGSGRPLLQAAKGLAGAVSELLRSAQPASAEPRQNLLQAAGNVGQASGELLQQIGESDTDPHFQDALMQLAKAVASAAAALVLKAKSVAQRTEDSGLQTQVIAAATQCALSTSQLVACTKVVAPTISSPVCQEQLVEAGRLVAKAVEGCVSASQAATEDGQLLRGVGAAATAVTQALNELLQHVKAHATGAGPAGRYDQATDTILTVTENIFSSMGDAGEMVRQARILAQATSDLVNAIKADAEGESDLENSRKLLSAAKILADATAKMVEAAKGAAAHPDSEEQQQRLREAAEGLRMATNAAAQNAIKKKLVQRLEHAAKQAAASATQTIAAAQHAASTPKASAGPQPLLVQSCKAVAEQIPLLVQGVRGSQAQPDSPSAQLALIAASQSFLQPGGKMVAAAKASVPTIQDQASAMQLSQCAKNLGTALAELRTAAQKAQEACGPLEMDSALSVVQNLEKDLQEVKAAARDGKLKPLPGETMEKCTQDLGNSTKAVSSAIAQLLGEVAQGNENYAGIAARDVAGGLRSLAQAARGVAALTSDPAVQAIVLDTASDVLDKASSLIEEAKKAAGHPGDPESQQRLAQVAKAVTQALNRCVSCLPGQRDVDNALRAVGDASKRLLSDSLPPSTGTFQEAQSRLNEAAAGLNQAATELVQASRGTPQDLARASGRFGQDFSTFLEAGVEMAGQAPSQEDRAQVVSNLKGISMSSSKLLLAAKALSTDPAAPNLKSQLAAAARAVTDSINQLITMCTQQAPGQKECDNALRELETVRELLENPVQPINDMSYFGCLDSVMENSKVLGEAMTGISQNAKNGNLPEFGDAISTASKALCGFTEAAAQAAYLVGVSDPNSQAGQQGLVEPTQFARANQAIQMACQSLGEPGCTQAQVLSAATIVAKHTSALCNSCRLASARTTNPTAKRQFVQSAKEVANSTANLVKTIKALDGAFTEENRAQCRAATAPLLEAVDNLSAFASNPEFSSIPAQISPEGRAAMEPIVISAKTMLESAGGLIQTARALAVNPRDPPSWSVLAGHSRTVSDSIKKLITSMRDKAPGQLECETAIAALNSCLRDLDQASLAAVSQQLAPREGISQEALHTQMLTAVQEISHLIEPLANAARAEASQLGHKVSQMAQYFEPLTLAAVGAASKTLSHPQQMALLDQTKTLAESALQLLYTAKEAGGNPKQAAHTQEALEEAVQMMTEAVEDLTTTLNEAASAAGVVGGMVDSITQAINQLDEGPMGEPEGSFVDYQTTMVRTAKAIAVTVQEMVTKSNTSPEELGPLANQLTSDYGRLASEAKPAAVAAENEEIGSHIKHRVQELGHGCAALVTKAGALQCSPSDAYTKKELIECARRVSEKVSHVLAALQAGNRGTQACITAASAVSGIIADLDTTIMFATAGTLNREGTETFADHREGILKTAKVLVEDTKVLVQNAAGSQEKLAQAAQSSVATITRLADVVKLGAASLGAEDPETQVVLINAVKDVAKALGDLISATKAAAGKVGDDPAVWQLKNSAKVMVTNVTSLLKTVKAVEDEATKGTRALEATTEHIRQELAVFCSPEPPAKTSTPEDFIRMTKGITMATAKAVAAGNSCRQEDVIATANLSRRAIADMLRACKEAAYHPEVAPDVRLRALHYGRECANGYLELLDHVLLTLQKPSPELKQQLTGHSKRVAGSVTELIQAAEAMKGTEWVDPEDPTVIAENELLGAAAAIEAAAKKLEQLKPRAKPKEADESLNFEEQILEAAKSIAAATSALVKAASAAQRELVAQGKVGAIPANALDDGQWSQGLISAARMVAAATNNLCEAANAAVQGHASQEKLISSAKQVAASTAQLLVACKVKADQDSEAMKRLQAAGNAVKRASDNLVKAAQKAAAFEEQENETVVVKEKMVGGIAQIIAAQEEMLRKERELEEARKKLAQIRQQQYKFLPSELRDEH

[11] = biological target: talin H1-H4; assay: isothermal titration calorimetry, cell talin H1-H4, titrant talin H46 (VBS3)

A483:HVD1 complex, sequence (P18010 483-633 limits assumed): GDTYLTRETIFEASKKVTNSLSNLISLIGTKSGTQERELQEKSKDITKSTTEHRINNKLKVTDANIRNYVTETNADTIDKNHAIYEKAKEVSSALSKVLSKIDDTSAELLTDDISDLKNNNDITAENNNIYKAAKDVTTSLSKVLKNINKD
IpaA 483-633 (A483), sequence (P18010 483-633 limits assumed): as above
GFP-A483, sequence (P18010 483-633): as the sequence (P18010 483-633 limits assumed) above
IpaA 524-633 (A524), sequence (P18010 524-633 limits assumed): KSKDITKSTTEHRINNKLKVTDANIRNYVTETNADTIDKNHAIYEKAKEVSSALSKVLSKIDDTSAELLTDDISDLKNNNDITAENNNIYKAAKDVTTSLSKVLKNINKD
talin H1-H4, sequence (P26039 482-636): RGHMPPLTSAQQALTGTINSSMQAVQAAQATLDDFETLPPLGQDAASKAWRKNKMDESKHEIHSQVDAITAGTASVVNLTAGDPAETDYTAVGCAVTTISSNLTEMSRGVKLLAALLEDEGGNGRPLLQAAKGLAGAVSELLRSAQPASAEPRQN
IpaA full length, sequence (P18010 whole entry): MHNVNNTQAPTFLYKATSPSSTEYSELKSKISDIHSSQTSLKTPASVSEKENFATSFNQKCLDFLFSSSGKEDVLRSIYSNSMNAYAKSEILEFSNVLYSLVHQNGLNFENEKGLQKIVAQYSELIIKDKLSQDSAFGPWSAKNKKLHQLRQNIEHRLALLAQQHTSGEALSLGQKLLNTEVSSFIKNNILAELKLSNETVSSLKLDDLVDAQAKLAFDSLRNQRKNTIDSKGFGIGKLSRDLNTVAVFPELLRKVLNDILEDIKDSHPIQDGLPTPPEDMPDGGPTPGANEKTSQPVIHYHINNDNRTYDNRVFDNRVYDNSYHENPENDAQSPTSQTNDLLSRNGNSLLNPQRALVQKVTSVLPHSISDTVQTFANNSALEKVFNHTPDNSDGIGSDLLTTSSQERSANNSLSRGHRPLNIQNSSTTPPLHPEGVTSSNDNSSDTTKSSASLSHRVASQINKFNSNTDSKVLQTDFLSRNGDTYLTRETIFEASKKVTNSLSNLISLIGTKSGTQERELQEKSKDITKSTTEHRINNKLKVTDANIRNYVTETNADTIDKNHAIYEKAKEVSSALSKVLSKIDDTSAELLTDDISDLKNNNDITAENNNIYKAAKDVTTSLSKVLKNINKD

Work on “A483:HVD1 complex (from UniProt P18010 483-633; P18206 1-258)” yielded a -TΔS [1] of 1.37 kcal/mol, a stoichiometry [2] of 1 and a -TΔS [3] of -1.37 kcal/mol. The N (stoichiometry) [3] was 0.459, the ΔG [3] was -7.68 kcal/mol and the ΔH [3] was -9.05 kcal/mol.

GFP-A483 (from UniProt P18010 483-633) showed an adhesion stress σ=F/A at detachment, parallel plates [4] of 6.5 nN/µm^2, a median cell surface [4] of 1850 µm^2 and a median time between two divisions (second group of GFP-A483 cells) [4] of 17.1 h. The median velocity of migration [4] was 30.7 µm/hour and the rate of single-cell traction force generation (dF/dt), parallel plates [4] was 0.4.

Substance “IpaA 483-633 (A483) (from UniProt P18010 483-633)” has a stoichiometry (molar ratio of the complex (1:1)) [5] of 1, a -TΔS [6] of -3.8 kcal/mol and a Kd [6] of 24.9 nM. The N (stoichiometry) [6] was 1, the ΔG [6] was -10 kcal/mol and the ΔH [6] was -6.23 kcal/mol.

“IpaA 524-633 (A524) (from UniProt P18010 524-633)” was tested, and the -TΔS [7] was -3.47 kcal/mol, the Kd [7] was 2030 nM and the N (stoichiometry) [7] was 1.5. It also gave a ΔG [7] of -7.45 kcal/mol, a ΔH [7] of -3.98 kcal/mol and a stoichiometry (molar ratio of the complex (1:1)) [5] of 1.

IpaA VBS1 peptide was tested, and the -TΔS [8] was -2.47 kcal/mol, the Kd [8] was 15200 nM and the N (stoichiometry) [8] was 1.22. For the same substance, the ΔG [8] was -6.58 kcal/mol and the ΔH [8] was -4.1 kcal/mol.

Substance IpaA VBS3/TBS peptide has a -TΔS [9] of -2.83 kcal/mol, a Kd [9] of 175 nM and a N (stoichiometry) [9] of 0.893. For the same substance, the ΔG [9] was -9.22 kcal/mol, the ΔH [9] was -6.39 kcal/mol and the -TΔS [1] was -1.53 kcal/mol. It also gave a Kd [1] of 150 nM and a ΔG [1] of -9.07 kcal/mol.

“IpaA full length (from UniProt P18010 1-633)” was tested, and the percentage of foci forming talin coat structures [10] was 52%.

For “talin H46 (talin VBS3) α-helix (peptide)”, the N [11] was 0.92, the ΔG [11] was -9.97 kcal/mol and the -TΔS [1] was 7.2 kcal/mol. For the same substance, the Kd [1] was 60 nM and the ΔH [1] was -17 kcal/mol.
